Measurements as given in article PMC6414702, “AtrR Is an Essential Determinant of Azole Resistance in Aspergillus fumigatus”.

T1: AtrR DNA-binding domain (AtrR-DBD) (Aspergillus fumigatus) (UniProt Q4WI89)
T1 sequence: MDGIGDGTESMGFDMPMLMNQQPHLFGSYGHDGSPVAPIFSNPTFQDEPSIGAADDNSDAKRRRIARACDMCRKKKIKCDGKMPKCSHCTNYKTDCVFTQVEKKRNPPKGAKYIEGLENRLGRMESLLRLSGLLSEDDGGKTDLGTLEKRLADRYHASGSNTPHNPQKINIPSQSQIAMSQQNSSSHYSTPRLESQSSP

T2: AtrR DNA-binding domain (AtrR-DBD) (Aspergillus fumigatus, UniProt Q4WI89 1-199)
T2 sequence: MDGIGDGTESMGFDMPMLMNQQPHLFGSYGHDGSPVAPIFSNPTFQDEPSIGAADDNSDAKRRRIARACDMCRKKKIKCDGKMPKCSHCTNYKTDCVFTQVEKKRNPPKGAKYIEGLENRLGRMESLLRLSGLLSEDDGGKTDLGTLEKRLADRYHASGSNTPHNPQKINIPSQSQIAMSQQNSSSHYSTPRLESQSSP

B1: cyp51A 34-bp probe (dsDNA)
DNA 1: GAATCACGCGGTCCGGATGTGTGCTGAGCCGAAT
DNA 2: ATTCGGCTCAGCACACATCCGGACCGCGTGATTC
B2: DM competitor (dsDNA)
DNA 1: GAATCACGCGGTATTGATGTGTGCTGAGTATAAT
DNA 2: ATTATACTCAGCACACATCAATACCGCGTGATTC
B3: SphI mutant competitor (dsDNA)
DNA 1: GTTGTCTCAGAATCACGCGGGCATGCTGTGTGCTGAGCCGAAT
DNA 2: ATTCGGCTCAGCACACAGCATGCCCGCGTGATTCTGAGACAAC
B4: EcoRI mutant competitor (dsDNA)
DNA 1: GTTGTCTCAGAATCACGCGGTCCGGATGTGGAATTCGCCGAAT
DNA 2: ATTCGGCGAATTCCACATCCGGACCGCGTGATTCTGAGACAAC
B5: cyp51A 42-bp wild-type competitor (dsDNA)
DNA 1: GTTGTCTCAGAATCACGCGGTCCGGATGTGTGCTGAGCCGAAT
DNA 2: ATTCGGCTCAGCACACATCCGGACCGCGTGATTCTGAGACAAC

Key:
[1] = target: T1, AtrR DNA-binding domain (AtrR-DBD) (Aspergillus fumigatus); experiment: EMSA; conditions: Biotin EMSA: 25 mM Tris-HCl pH 7.5, 80 mM NaCl, 35 mM KCl, 5 mM MgCl2, 10% glycerol, 1 ug poly(dI-dC), 20 ul, 0.1 ug AtrR-DBD, 20 pmol probe, room temperature …
[2] = target: T2, AtrR DNA-binding domain (AtrR-DBD); experiment: EMSA; 5 mM Mg2+, poly(dI-dC); Biotin EMSA: 25 mM Tris-HCl pH 7.5, 80 mM NaCl, 35 mM KCl, 5 mM MgCl2, 10% glycerol, 1 ug poly(dI-dC), 20 ul, 0.1 ug AtrR-DBD, 20 pmol probe, room temperature 30 min; 32P EMSA and footprinting as in cited reference 40; conditions: protein: recombinant; chain copies: 2; label: 5' biotin on both strands; blunt
[3] = target: T2, AtrR DNA-binding domain (AtrR-DBD); experiment: competition; 10-fold excess over biotinylated 34-bp probe (12-fold in Methods); Biotin EMSA: 25 mM Tris-HCl pH 7.5, 80 mM NaCl, 35 mM KCl, 5 mM MgCl2, 10% glycerol, 1 ug poly(dI-dC), 20 ul, 0.1 ug AtrR-DBD, 20 pmol probe, room temperature 30 min; 32P EMSA and footprinting as in cited reference 40; conditions: protein: recombinant; chain copies: 2; blunt

| Molecule | binding result [3] | also measured |
| --- | --- | --- |
| GAAAAAACTCATGAGTGAATAATCGCAGCACCACTCCAGAGTTGTCTAGAATCACGCGGTCCGGATGTGTGCTGAGCCGAATGAAAGTTGCCTAATTACTAAGGTGTAGTTCCAGCATACCATACACCCTAACTCATACTACGGTAGGTAGATCTACTTACCTATGAACCTATATTGGTAGGTAGGTGAATATAAAATACAGCATG (double strand) [cyp51A promoter PCR probe] | – | binding [1]: binds |
| B1 | – | binding result [2]: binds |
| B2 | no binding | – |
| B3 | no binding | – |
| B4 | binds | – |
| B5 | binds | – |
